Read-outs that look alike come from different tables or passages of the source.
B1: M91005 (designed binder)
chain: GSGMKETAAAKFERQHMDSPDLGTDDDDKAMADIGSANSDPQFGLFSKYRTPNCRKRGGPSCQMSYNPVCGSDMSTYANECTLCMKIREGGHNIKIIRNGPCGASAAA
B2: M91005_D1G-Fc-01 (Fc fusion)
chain: GSGMKETAAAKFERQHMDSPDLGTDDDDKAMADIGSANSGPQFGLFSKYRTPNCRKRGGPSCQMSYNPVCGSDMSTYANECTLCMKIREGGHNIKIIRNGPCGASAAAGGGGSDKTHTCPPCPAPELLGGPSVFLFPPKPKDTLMISRTPEVTCVVVDVSHEPEVKFNWYVDGVEVHNAKTKPREEQYNSTYRVVSVLTVLHQDWLNGKEYCKVSNKALPAPIEKTISKAKGQPREPQVYTLPPSREEMTKNQVSLTCLVGFYPSDIAVEWESNGQPENNYKTTPPVLDSDGSFFLYSKLTVDKSRWQQNVFSCSVMHEALHNHYTQKSLSLSPGK
B3: M91002_G0 (designed binder)
chain: GSGMKETAAAKFERQHMDSPDLGTDDDDKAMAENLYFQGDPQFGLFSKYRTPNCRTGRGPACQMGFQPVCGSDMSTYANECTLCMKIREGGHNIKIIRNGPC
B4: M91002_G2 (designed binder)
chain: GSGMKETAAAKFERQHMDSPDLGTDDDDKAMAENLYFQGDPQFGLFSKYRTPNCRTGRGPACQMGFQPVCGSDMSTYANECTLCMKIREGGHNIKIIRNGPCGG
B5: M91002_G3 (designed binder)
chain: GSGMKETAAAKFERQHMDSPDLGTDDDDKAMAENLYFQGDPQFGLFSKYRTPNCRTGRGPACQMGFQPVCGSDMSTYANECTLCMKIREGGHNIKIIRNGPCGGG
B6: M91011 (designed binder)
chain: GSGMKETAAAKFERQHMDSPDLGTDDDDKAMADIGSANSDPQFGLFSKYRTPNCMMYKYAQCSHKSQPVCGSDMSTYANECTLCMKIREGGHNIKIIRNGPCGASAAA

What was measured:
[1] = target: G186A; assay: substrate peptide degradation inhibition
[2] = target: P196T; assay: substrate peptide degradation inhibition
[3] = target: D113K; assay: substrate peptide degradation inhibition
[4] = target: L114P; assay: substrate peptide degradation inhibition
[5] = target: Q108N; assay: substrate peptide degradation inhibition
[6] = target: I198V; assay: substrate peptide degradation inhibition
[7] = target: G112R; assay: substrate peptide degradation inhibition
[8] = target: P180A; assay: substrate peptide degradation inhibition
[9] = target: T109F; assay: substrate peptide degradation inhibition
[10] = target: E111P; assay: substrate peptide degradation inhibition
[11] = target: S413Q; assay: substrate peptide enzyme inhibition
[12] = target: P421A; assay: substrate peptide enzyme inhibition
[13] = target: L418A; assay: substrate peptide enzyme inhibition
[14] = target: D410E; assay: substrate peptide enzyme inhibition
[15] = target: T1, active hMMP-9(cat)_His6 (UniProt P14780 107-449); assay: enzyme inhibition; substrate peptide
T1 sequence (P14780 107-449): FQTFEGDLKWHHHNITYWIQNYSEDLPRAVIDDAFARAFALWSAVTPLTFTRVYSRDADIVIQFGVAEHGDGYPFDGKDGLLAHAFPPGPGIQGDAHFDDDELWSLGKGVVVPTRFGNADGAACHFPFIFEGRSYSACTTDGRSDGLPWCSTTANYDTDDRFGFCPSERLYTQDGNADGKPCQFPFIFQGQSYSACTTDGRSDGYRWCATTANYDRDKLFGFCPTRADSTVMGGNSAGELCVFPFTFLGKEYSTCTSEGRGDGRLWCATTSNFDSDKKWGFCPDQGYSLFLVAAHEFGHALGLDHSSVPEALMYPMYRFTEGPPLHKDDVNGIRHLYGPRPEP

[16] = target: T1, active hMMP-9(cat)_His6; assay: enzyme inhibition; substrate peptide; remark: listed apart in the source

Binder | IC50 [1] [nM] | IC50 [3] [nM] | IC50 [5] [nM] | IC50 [6] [nM] | IC50 [7] [nM] | IC50 [8] [nM] | IC50 [9] [nM] | IC50 [10] [nM] | IC50 [11] [nM] | IC50 [12] [nM] | IC50 [16] [nM] | other results
B1 | 15 | 21 | 20 | 16 | 19 | 25 | 15 | 31 | 30 | 23 |  | IC50 [2]: 18 nM; IC50 [4]: 22 nM; IC50 [13]: 9.3 nM; IC50 [14]: 22 nM
B2 |  |  |  |  |  |  |  |  |  |  |  | IC50 [15]: 4.3 nM
B3 |  |  |  |  |  |  |  |  |  |  | 3.6 | 
B4 |  |  |  |  |  |  |  |  |  |  | 3.5 | 
B5 |  |  |  |  |  |  |  |  |  |  | 3.5 | 
B6 | 16 | 21 | 21 | 16 | 15 | 24 | 15 | 23 | 28 | 8.7 |  | 
